This note sets out measurements from the NTF2 design screens of Basanta et al. (2020).

The data set can be described thus: protease stability score; higher = more stable; yeast display proteolysis, trypsin and chymotrypsin.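 Also: log10 excess protease needed over predicted unfolded state with 0 meaning unfolded.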
Turning to “DEEKKRRVAQKIAKLVQTGDPRDVETMMRDDVRANYGDKEYHGRENVSTFADRQVKKVDHRHIESVKNSGEQLVVDMRFVINGHNVRFRISFEFHNGKIKQANFDPKAIEHQDS”, the protease stability score is -0.176. “DERMKKLAEQIVKARRTGDEKQQKELFDEDAHVQIGDKTVHGKENQIETMKKRRDEIRVEIRINSLSVNNGKADISLEQTDDKNGTPKTDVVRATVHATNGRVKEVRYKHDG” showed a protease stability score of -0.156.

As to “DEDQNRKMEHALRKNDWTRLAEQADKDVKVHIGDKVLHGREEVLKYLKRFQENVDHIEIKRMEATGNKVTVEYDVNFDGTTLDVTFKMVVQNGTVEHMTFDFRSEEQEHEAKKAYG”, the protease stability score was found to be 0.627. As for “DEQAKEVAEHWWEAVKKNDPTQAKENADKDVRARVGDQEIHGREDLATWLDQQKREMRIDLQIDSVSVSNGTLDIKAKMQVEDNGTPEHNTVEASMVVHNGRVKQFHIRVTK”, the figure is 0.96. As for “DEDDWRKRMKKVVEVLRTGNPDTMVDMVDENAKAKYGDKEYHGREQIHKWMEDRQKRYDHVNVKHMHIQGNKVNISAVYVVNGRSEDRQLQVVFDNGKIKSMRVTEQ”, the figure is -0.053; as for “DKKEHQEAAETFDRALKRGDPDTAMSLFDKDARANVGDKTYQGSEKLSEAMHRLSEEADRFHVRDVHFTNGEVSVNMYLNVNGKRVQVDVHIELSNGRAKEVTFNPDQLNEMQN”, -0.119; as for “DEEASKRFEKFQHLLRDGNEDRVQKLVDPNVKFDLGSTSLHGMEEVARTLVQRYRSIRIRQEIDTYEVKGDTVRFKQKVQWNINGQPFSDHITFEAHQTNGKFSHVVIRIDPQLLEELRK”, 0.503. Consider “DQDEQRHQMEEVRKAFQRGDNEKFERLADPNVRYQVGDKTYHGREQASKALSDIREQVDHLEIKDYKIHGNKLDINVVVDINGEKHEYRIIVHIHNGRITRYQFQST”, for which the protease stability score was found to be 0.73. As for “DEELEKHADTLFEAWNHNDPKTVMKMFDPNAHVDVGDHRFRGREDLHDKMSEIQEHARLRVDVKDVKAQGEKATVRFSIEINYNGKPTQDDVVQDMEVRNGRIKRLSYRTDK”, the figure is -0.13.

Regarding “DETRQAKDMVSELRKALKQGDEDKAMKLADPNVRLDVGEKDLHGRERLKEWVTEIRDKYDRVDLKVTHVHVRGNKIVVHAEVVMRRNGHQKTMTLTIVVRLQGDHLHIVEITQR”, the protease stability score was 0.803. As for “KEETVKTLWERMVEAVQKGDKEKVKKLGKDNVNARYNGKEYQGREELAKMLDKFKRKGAEFELKQVHVEGNTVKAEIEVHAAGTTQHVEVEAKYDGGQVEEVVVKISEEVQEMYKKG”, the protease stability score stood at 0.551. In the case of “DKELRKHLTEFVKNYQHGNERELNKYADPNVKFRYGDKTLNGREEWMKHIQRLKKEIRFEIDDFRIRARNGELDMTFDFKQEVNGRPKSDRAQMNVVMHNGKIVEIDFRVDPTFEKEVKG”, the protease stability score is 0.376. As for “DERDQELFQNFIKALQTNNPDQVMEQVDPNAEIQYGDRVVRGRHQLRREVEQEHHEMRNDIKVRSIRANNGHVEATFDVVFEINGKPVENRVSVILEMRDGRAKHIEWRIPSEVKEQLKG”, the figure is 0.059; as for “DEEELRELVRNIIEQLQQNNEEELKKQMDKDARMQYGDKEWHGREDIVRHLASVAHQVDHLELESVSVDGNKAHFTFRRQVNGHDETLRAELVVRNGRVVSIKYRHN”, -0.021. “DEEDDKKMNELLKQIQTGNDQKVERLIDPNANMHIGNQDIHGSEDVRKWIEKITKELNITFKVNHFRVKGDKIKIKVKINVKHNGQPDSDTIDLVARVENGHFTRIELHMDEKRWKKQVS” gave a protease stability score of 1.15. As for “DEHHTQEARKFLENQQTGNETELQKYADPNASAQIGDKRVHGMEKFAHTIRKEVDELRMTIHDVRFDANGEKVIVHVDVQYDHNGRPERATMVVLFKHNNGKATEITARYDK”, the figure is 0.411; as for “DDKAADDARRALEQLNTGNEERAATYMDPNVSVRIGDKSVHGREEIQRSEERKRRRLEVQYKDYRVSVENGEFTASYDYTNHHNGRPQRVKVEVHISADNGKIKSVQQHEDK”, 0.213. As for “DEEKMKEFVKNLNTGNNHRLRKMMDEDVKVVVGDKRYKGDEQAAQFWRRILEQADDIRVNDFKVSGNTAHVDVVINWNGKHIVLDVHVEIHNGKVKQIRIEVRDEEVKRAQEEMES”, the figure is 1.25.

Consider “DREDESELAMRAAVNAATGNEDEVSKNADPNVRAIYGDKNYDGTENMKDVIRQVRERIDHIELKSFEQHGDHAVARAEAKHNGDESTLVVTARAENGRVKSMRFEIR”, for which the protease stability score is -0.275. Turning to “DEHNHKVAEEIFKALTTGDPDKVRENFDKDASLVIGDKTVNGRKQIKEEVQKRKDEMRIDFKNIDIQVSDGKVRVNVRMQVNINGQPVDFTLDAEFDIHNGKAKQVRFEFDEKDKRTLEQ”, the protease stability score is -0.059. Take “DEKETHKVLEKIEKVLHNFNIDEAKKVLKDDVRVQYLDEEYHGPDAAEKRLTKVKKLGAQVEYKEAHVEGNRVKAKVQVNVGGRTLEFTVEYTAKGHKVDEFRVQYDEDAQKTIKHG”: the protease stability score was 0.76. In the case of “DDKDLKDVAEKVMHAVQNGDPHEARKMFDKDARIIVGDTEVHGRSNIMHLMTEFRKRVDHAEIKDLTVNGEDVRIDMVLDINGKKHRRTWEVRVSNGRARHAHLDPKDLERQSK”, the protease stability score was found to be 0.481.

“DDSAMRQIHDLLRHIETGNEKEVSKQMDPNARLQIGDQVYHGNEQARRAWKRERDEIRISIKRVRMDAKGDKVFIEMDLVREKDGTPDRLTMRITVQQHDGRVKDLVQEERR” had a protease stability score of 0.07.

Sequence “DDERRARDLFKEHEDNWKNGNHEELVKQADEDARVDVGDKELHGRDDLRRENRRIVEQADHIRFDLKSLDVQGDKVTFDFVVKVDINGRTETRRVQEKFVVTNGRIRLKEATEG” had a protease stability score of -0.009. As for “DERKLATRHAHTLDRILRTGDEERYVDMADKDVKFDVGDRKYKGRHELHKLAKEEQKKADHLQLNYKHITAHNGRVDMDVVVVQVHNGQKRQTNVRYSEEIHNGNVIVQSATEK”, the figure is -0.355; as for “DSHAENLLQQVLKALETGDQKRVMELFDPNAKVRYGDKTLHGREEIRKYVKKLKDEMQIRIEVRSVTVQGNKITADVVVRADVDGKPVEMRVRIHVEFENGKIHSLSVDMDPEQVKELEK”, 1.56; as for “DEEQARRFREFMEVVRQGDEEKIKRYVDPNARVEVGEETLHGREDIAEWWQKVVRQIRVDITITKMSVSNGKLEIHARAQYEHNGTPEDNRQVIVIQWHNGVAKTIRMEKDG”, 0.653. In turn, “DENQVDQLKELMDALQNNDERKANDLADKNARIRIGDKDVSGRSDMNRMVRELHERIRFTIRTVELHHQGDKVIAKVKVEMDHNGKPNDVTQNAEAKYHNGHLQRLFFDTRS” showed a protease stability score of -0.433. Sequence “EEHLQERLTKLNEAEQKGDPKKILEQVDPNARVEVGDKTYHGMDRYARRVAKEMNEMRVEVHIKDLKVRGNNIHAEMSATHTKNGKPSHNEFTLVVVWNNGRVTSIVVTHKS” gave a protease stability score of 0.717. “DRNHVKEIAKEILKAMETNDEKRMSELMDKNVRLVYGDTEVHGRERVLTTIKHELESIDHVNFHDMSVDGDKIHVVYHVQKNGDRRQVEVRYVISNGKIQEVQINTR”: the protease stability score was 0.623. The value for “DEKRAHDFAQQVIRVIQDGDPREAQKLADENVRVEYGDRTVHGKEQISNFAQEFRTRVDHVKIDTWHAQGDKIVIHLKVNVNGREKRVVVVVEVHNGRVKSLVYKDG” was 1.24.

The sequence “DDTKTARELVENLNEAFEKGDEDQFVSNLPPDARIEVGDRQVHGREQLKKWFDEMVERFDHMRIEVRHVEHHNGDVRVSARMQWQHNGREQSDSVEVVFVNDNGRLKMHVLRYG” showed a protease stability score of 1.5. Take “DERAKEVFKELIEAWKHGNEDQVREMADKDARFTVGDKEIHGREEWAKQIRERHEKIRFEMRIRHVHVNGDRLSIEADFSVDINGQPLSYRMKIELRIHNGKIKELVFQVSEEDKNKQKR”: the protease stability score is 0.576. The sequence “DEDTLRKVAETLMKALKTNDSESLKQMMDKDVKMTVGDKKYQGREEAADHLIELAQSVDHLEVRSVDNQGNHASVEFEVQHNGRNDTVHLRFEISNGRVKNVVLHTP” gave a protease stability score of 1.99.

As for “EEDLHEAFERIKHALEHGDPKQVQNQFDPNVEVIIGNKTLHGRETLKDEVKKLQDEMQITWRSITINVDGDRVVVHYHIEFRINGQPQSMSYNVDARASNGKIEEMDLRISEDQQKRLNS”, the protease stability score was 0.06. For the sequence “DEETQNTRMEEFFKALKTGDEDRAVELADENVKIEIGDRSVSGREVVRHYVQDFQRRVDHNEIKSMRVHNGRAEVTMVVNHNGTTDTRVVHLEAENGRVRRISVDHP”, the protease stability score turned out to be 0.448.

In turn, “DETNVKNAEEWLRALQDNNSEQLRKLMDKDVRVEIGDDVIKGREDVVTNLIRKARELRFRIKVDKIEDDNGKVVVHAEATFTHNGKPDRVEVELVFSLDNGKIKEVVVKTDG” showed a protease stability score of 1.69.

“DEEREKEFATRIATALRTNDPKKMVKNFDENAKFDVGDNRIKGREELKEWVDELHKEFDHIEIHDVQAHNGRAKINLKLEHNGRDTVLDATVVVENGRAKSAKQDQS” showed a protease stability score of -0.448.

In turn, “DEKTVKEVVDKWIKALENNDEEKLQKMLKPNGEAHYADTTYKGKDQIVKYVVEFMRRGVELQVKEQEVKGGRAEYQVDATLGGDTVTLRVVIYVKDGVVDKVEFRDDEKVQKMMKKG” yielded a protease stability score of 0.105.

As to “DEHVLHELERAFRDNDFERLQEQFDENARVEIGDKTYHGKNQVQQAMNDFKTAYDHYQLKTFDIHGEKVFADVKATVNGHDVEFEWEMTASNGRIKKLHIQARDEEVKEQLKRALS”, the protease stability score stood at 0.109. The sequence “DEEAQKHLREFFKNQETGDPDKLMEMVDENVHWQVGDKTIEGRDTMKQDFDRRRKELRYHVDIKKVNAHNGRIRARATFHNEHNGKPKSFQAIVVAVITNGRIKSIHVQKRQ” had a protease stability score of -0.037. As for “DEEVLEQVKKYIDAEKSNDPDQAVKLFDENADMQIGDKRVNGREQIKTEIERRIREMNRDVEVTHVHVDNGRATLTVRLRFTVNGKPHEDRFIIQAHATNGRINTLTVHFDEQSKRDVDK”, the figure is 0.741. For the sequence “DEDTARKQVQIYKDNDPNQLVRMFDENARLKVGDQTVDGREELERWVKRLRTRVDRYSYKNVDIQGERVVIDMVMVVDGKQVEFVVEFVVEDGRIKNAKVQARNKDEETKLQEAIG”, the protease stability score was determined as 1.25. As for “DEEEVERIAKKLWKIMETGDEDEARKMVPPDVQARVGDKHISGREQYAKWVREVVKRVDSFRIKSLDAKGDKVNIVFVVHHNGKVEQHHATLVFHNGKLVYRTVKTG”, the protease stability score was 0.433. The sequence “DEEEAHELLKKVLHYTVKGNVDELRKFVKPDLKYVLGDQEHQGSQVADQVEKEIRRQGTRLEVEKAEVKGDKAELQYRFTVAGKTFTLHVRVRAKDHRVDEWKVEMTDDVKEYQKKG” came in with a protease stability score of 0.391. As for “DHKQEATKNLKKFEDVMKTNDPEKAKNLADENVRVQVGDKTVHGKEKMVSTMLEEMRKVDHFSVHLQEVSFHGDKLNLSYEFVLNQNGKERKDVRVFHAANHNGRFLVEELHQG”, the figure is -0.322. “DDDKRAEDWAKELIKVEQEGDEDQMERNADEDVRLKYGDTEIHGREQFREHVREQIERVDSVDVRIETFHMHNGRLDMVAEVEVQVDGRKHKDRFVFHAVDHNGRMLLKSASEG”: the protease stability score was determined as 0.522.
